Results on three molecules are retold here after patent publication US20250257122A1 (UNITED STATES OF AMERICA AS REPRESENTED BY THE SECRETARY OF …, published 2025).

Where a chain is given by its changes, count along the chain named.

Assay [1] has as its target T1, cotton leafroll dwarf virus (CLRDV) N-terminal readthrough domain (^NRTD), purified soluble construct (cotton leafroll dwarf virus (CLRDV), …).
T1 construct: Expressed in E. coli; Calculated MW 26.410 kDa; also called CLRDV ^NRTD; CLRDV ^NRTD (TX)
T1 chain: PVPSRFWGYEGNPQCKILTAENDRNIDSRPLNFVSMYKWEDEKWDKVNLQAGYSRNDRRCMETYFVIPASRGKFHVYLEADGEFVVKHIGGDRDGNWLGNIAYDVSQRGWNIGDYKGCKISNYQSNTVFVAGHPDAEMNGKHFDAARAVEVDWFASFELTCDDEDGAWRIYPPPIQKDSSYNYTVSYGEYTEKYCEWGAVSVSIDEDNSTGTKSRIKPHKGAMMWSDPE
The assay can be described thus: phage display panning and screening (legend of FIG. 3). The method, then:
(§1) Isolation and screening for specific single-chain antibodies was carried out as detailed by K. M. Chow, et al. (2019, “Immunization of Alpacas (Lama pacos) with Protein Antigens and Production of Antigen-specific Single Domain Antibodies,” J. Vis. Exp. (143), e58471. doi: 10.3791/58471). Briefly, alpacas were immunized with ˜400 μg of a mixture of both TX and AL CP or ^NRTD preparations that contained 50% (v/v) of adjuvant. Five subsequent weekly boosting injections were provided using ˜200 μg of the same mixture detailed above. Three to five days after the last injection, 50 mL of blood was collected, and lymphocytes purified. A cDNA library was prepared using oligodT primers and RNA extracted from lymphocytes. A bacteriophage library was obtained from the cDNA library by cloning with restriction enzymes into the phage display vector pMES4. Expression of the insert fused to gene III of the filamentous phage was used for production of the phage solution and single-domain antibody panning. After screening, two single-chain antibodies that recognized the CRLDV CP were identified and named B6 (SEQ ID NO: 8) and E3 (SEQ ID NO: 4) and three single-chain antibodies that recognized the CRLDV ^NRTD were identified and names C12 (SEQ ID NO: 12), A12 (SEQ ID NO: 16), and D12 (SEQ ID NO: 20), respectively.

Assay [2] addresses T1, cotton leafroll dwarf virus (CLRDV) …. The assay can be described thus: phage display panning and screening. The method, then: as §1

B1: D12 camelid single-chain antibody (VHH)
VHH: QVQLQESGGGLVQAGDSLRLSCAASGRTFNSFAMGWFRQAPGKEREFVAAIKWNGVTTDYADSMKGRFTISRDNAKNTMYLQMNTLKPEDTAIYYCAAKPTWATTNGRPTAYDYWGQGTQVTVSS
notes: Alpaca VHH, cloned into pMES4 and expressed in E. coli; also called D12 single-chain antibody
With B1, the binding result in assay [1] is recorded as “binds”.

B2: A12 camelid single-chain antibody (VHH)
VHH: B1 VHH with V12A, K52N, T110A
notes: Alpaca VHH, cloned into pMES4 and expressed in E. coli; also called A12 single-chain antibody
Consider B2, for which, in assay [2], the binding result was “binds”.

B3: C12 camelid single-chain antibody (VHH)
VHH: B1 VHH with V12A, K65R, L81M
notes: Alpaca VHH, cloned into pMES4 and expressed in E. coli; also called C12 single-chain antibody
For B3, in assay [2], the binding result was “binds”.
